Results as given in PMC13189624, “MORC2 mediates transcriptional regulation through liquid-liquid phase separation” (eLife, 2026).
Residue numbers refer to the chain shown, from its start. In names and notes the source's numbering stands.

B1: MORC2 CC3 domain (residues 901-1003) (domain or fragment, human, UniProt Q9Y6X9 901-1003, looked up)
chain: LSTNHETIDLLVQILRNCLRYFLPPSFPISKKQLSAMNSDELISFPLKEYFKQYEVGLQNLCNSYQSRADSRAKASEESLRTSERKLRETEEKLQKLRTNIVA
notes: MORC2, human, UniProt Q9Y6X9, residues 901-1003; Cloned in a modified pET32m vector (Trx-tag); Used unlabelled for SEC-SLS and uniformly 15N-labelled for the NMR titration; The methods say fragments carry a GPGS linker; also called MORC2^901-1003; coiled-coil 3; source: E. coli, purified (Ni-NTA, SEC); 15N-labelled from M9 medium for NMR
B2: Trx-tagged MORC2 901-1032 Y921A (domain or fragment, human, UniProt Q9Y6X9 901-1032, looked up)
chain: LSTNHETIDLLVQILRNCLRAFLPPSFPISKKQLSAMNSDELISFPLKEYFKQYEVGLQNLCNSYQSRADSRAKASEESLRTSERKLRETEEKLQKLRTNIVALLQKVQEDIDINTDDELDAYIEDLITKGD
notes: MORC2, human, UniProt Q9Y6X9, residues 901-1032 with Y921A; the same legend also prints residue 921 as F921; source: E. coli, purified
B3: wild-type MORC2 901-1032 with Trx-tag (domain or fragment, human, UniProt Q9Y6X9 901-1032, looked up)
chain: B2 chain with A21Y
notes: MORC2, human, UniProt Q9Y6X9, residues 901-1032; Cloned in a modified pET32m vector with Trx-tag (14 kDa); also called WT MORC2^901-1032 (with Trx-tag); WT CC3-IBD; source: E. coli, purified (Ni-NTA, SEC)
B4: Trx-tagged MORC2 901-1032 F951Q (domain or fragment, human, UniProt Q9Y6X9 901-1032, looked up)
chain: B2 chain with A21Y, F51Q
notes: MORC2, human, UniProt Q9Y6X9, residues 901-1032 with F951Q; source: E. coli, purified
B5: Trx-tagged MORC2 901-1032 L915Q (domain or fragment, human, UniProt Q9Y6X9 901-1032, looked up)
chain: B2 chain with L15Q, A21Y
notes: MORC2, human, UniProt Q9Y6X9, residues 901-1032 with L915Q; source: E. coli, purified
B6: Trx-tagged MORC2 901-1032 I908Q (domain or fragment, human, UniProt Q9Y6X9 901-1032, looked up)
chain: B2 chain with I8Q, A21Y
notes: MORC2, human, UniProt Q9Y6X9, residues 901-1032 with I908Q; source: E. coli, purified
B7: Trx-tagged MORC2 901-1032 Y954A (domain or fragment, human, UniProt Q9Y6X9 901-1032, looked up)
chain: B2 chain with A21Y, Y54A
notes: MORC2, human, UniProt Q9Y6X9, residues 901-1032 with Y954A; source: E. coli, purified
B8: MORC2 CC3-IBD (residues 901-1032) (domain or fragment, human, UniProt Q9Y6X9 901-1032, looked up)
chain: B2 chain with A21Y
notes: MORC2, human, UniProt Q9Y6X9, residues 901-1032; The legend names no Trx tag on it, and it may be the same as the Trx-tagged m4; The methods say fragments carry a GPGS linker; Construct details are in Supplementary file 2; also called MORC2^901-1032
B9: Trx-tagged MORC2 901-1032 F922Q (domain or fragment, human, UniProt Q9Y6X9 901-1032, looked up)
chain: B2 chain with A21Y, F22Q
notes: MORC2, human, UniProt Q9Y6X9, residues 901-1032 with F922Q; source: E. coli, purified
B10: Trx-tagged MORC2 901-1032 L911Q (domain or fragment, human, UniProt Q9Y6X9 901-1032, looked up)
chain: B2 chain with L11Q, A21Y
notes: MORC2, human, UniProt Q9Y6X9, residues 901-1032 with L911Q; source: E. coli, purified
B11: Trx-tagged MORC2 901-1032 L958Q (domain or fragment, human, UniProt Q9Y6X9 901-1032, looked up)
chain: B2 chain with A21Y, L58Q
notes: MORC2, human, UniProt Q9Y6X9, residues 901-1032 with L958Q; source: E. coli, purified
B12: MORC2 CTDΔCW (residues 537-1032) (domain or fragment, human, UniProt Q9Y6X9 537-1032, looked up)
chain: EASEQKQKVPLGTFRKDMKTQEEKQKQLTEKIRQQQEKLEALQKTTPIRSQADLKKLPLEVTTRPSTEEPVRRPQRPRSPPLPAVIRNAPSRPPSLPTPRPASQPRKAPVISSTPKLPALAAREEASTSRLLQPPEAPRKPANTLVKTASRPAPLVQQLSPSLLPNSKSPREVPSPKVIKTPVVKKTESPIKLSPATPSRKRSVAVSDEEEVEEEAERRKERCKRGRFVVKEEKKDSNELSDSAGEEDSADLKRAQKDKGLHVEVRVNREWYTGRVTAVEVGKHVVRWKVKFDYVPTDTTPRDRWVEKGSEDVRLMKPPSPEHQSLDTQQEGGEEEVGPVAQQAIAVAEPSTSECLRIEPDTTALSTNHETIDLLVQILRNCLRYFLPPSFPISKKQLSAMNSDELISFPLKEYFKQYEVGLQNLCNSYQSRADSRAKASEESLRTSERKLRETEEKLQKLRTNIVALLQKVQEDIDINTDDELDAYIEDLITKGD
notes: MORC2, human, UniProt Q9Y6X9, residues 537-1032; Bacterial constructs were made with MBP or Trx fusion proteins; Which one was used here, and whether it was kept, is in Supplementary file 2; source: Escherichia coli, purified
B13: MORC2 fragment 744-1032 (domain or fragment, human, UniProt Q9Y6X9 744-1032, looked up)
chain: DEEEVEEEAERRKERCKRGRFVVKEEKKDSNELSDSAGEEDSADLKRAQKDKGLHVEVRVNREWYTGRVTAVEVGKHVVRWKVKFDYVPTDTTPRDRWVEKGSEDVRLMKPPSPEHQSLDTQQEGGEEEVGPVAQQAIAVAEPSTSECLRIEPDTTALSTNHETIDLLVQILRNCLRYFLPPSFPISKKQLSAMNSDELISFPLKEYFKQYEVGLQNLCNSYQSRADSRAKASEESLRTSERKLRETEEKLQKLRTNIVALLQKVQEDIDINTDDELDAYIEDLITKGD
notes: MORC2, human, UniProt Q9Y6X9, residues 744-1032; The expression system and tags are in Supplementary file 2
B14: Trx-901-975 (CC3 truncation) (domain or fragment, human, UniProt Q9Y6X9 901-975, looked up)
chain: LSTNHETIDLLVQILRNCLRYFLPPSFPISKKQLSAMNSDELISFPLKEYFKQYEVGLQNLCNSYQSRADSRAKA
notes: MORC2, human, UniProt Q9Y6X9, residues 901-975; The Trx tag points to the bacterial pET32m-type vector; Construct details are in Supplementary file 2; also called truncated CC3 constructs (residues 901-975); CC3 N-terminal region
B15: selenomethionine MORC2 CC3 domain (residues 901-1003), as crystallised (domain or fragment, human, UniProt Q9Y6X9 901-1003, looked up)
chain: B1 chain
modifications: selenomethionine (SeMet) in place of methionine
notes: MORC2, human, UniProt Q9Y6X9, residues 901-1003; The methods say 'MORC2 CC3 fused with a GPGS linker'; also called CC3 dimer; source: E. coli B834 in M9 medium with selenomethionine, purified (SEC, Superdex 75)
B16: full-length human MORC2 (MORC2FL, residues 1-1032) (natural protein, UniProt Q9Y6X9 1-1032, looked up)
chain: MAFTNYSSLNRAQLTFEYLHTNSTTHEFLFGALAELVDNARDADATRIDIYAERREDLRGGFMLCFLDDGAGMDPSDAASVIQFGKSAKRTPESTQIGQYGNGLKSGSMRIGKDFILFTKKEDTMTCLFLSRTFHEEEGIDEVIVPLPTWNARTREPVTDNVEKFAIETELIYKYSPFRTEEEVMTQFMKIPGDSGTLVIIFNLKLMDNGEPELDIISNPRDIQMAETSPEGTKPERRSFRAYAAVLYIDPRMRIFIHGHKVQTKRLSCCLYKPRMYKYTSSRFKTRAEQEVKKAEHVARIAEEKAREAESKARTLEVRLGGDLTRDSRVMLRQVQNRAITLRREADVKKRIKEAKQRALKEPKELNFVFGVNIEHRDLDGMFIYNCSRLIKMYEKVGPQLEGGMACGGVVGVVDVPYLVLEPTHNKQDFADAKEYRHLLRAMGEHLAQYWKDIAIAQRGIIKFWDEFGYLSANWNQPPSSELRYKRRRAMEIPTTIQCDLCLKWRTLPFQLSSVEKDYPDTWVCSMNPDPEQDRCEASEQKQKVPLGTFRKDMKTQEEKQKQLTEKIRQQQEKLEALQKTTPIRSQADLKKLPLEVTTRPSTEEPVRRPQRPRSPPLPAVIRNAPSRPPSLPTPRPASQPRKAPVISSTPKLPALAAREEASTSRLLQPPEAPRKPANTLVKTASRPAPLVQQLSPSLLPNSKSPREVPSPKVIKTPVVKKTESPIKLSPATPSRKRSVAVSDEEEVEEEAERRKERCKRGRFVVKEEKKDSNELSDSAGEEDSADLKRAQKDKGLHVEVRVNREWYTGRVTAVEVGKHVVRWKVKFDYVPTDTTPRDRWVEKGSEDVRLMKPPSPEHQSLDTQQEGGEEEVGPVAQQAIAVAEPSTSECLRIEPDTTALSTNHETIDLLVQILRNCLRYFLPPSFPISKKQLSAMNSDELISFPLKEYFKQYEVGLQNLCNSYQSRADSRAKASEESLRTSERKLRETEEKLQKLRTNIVALLQKVQEDIDINTDDELDAYIEDLITKGD
notes: MORC2, human, UniProt Q9Y6X9, residues 1-1032; cDNA amplified from a HeLa cDNA library; The plasmid is called MORC2-6xHis; Construct details are in Supplementary file 2; source: HEK293F, transiently transfected, purified (Ni-NTA, Superose 6 gel filtration), nucleic acid-free

Target: the molecule itself
Assay: SEC-MALS; size-exclusion chromatography with static light scattering (miniDawn); fragments at 70 μM; Superdex 200 increase or Superose 6 increase; 50 mM Tris-HCl pH 8.0, 150 mM NaCl, 1 mM EDTA, 1 mM DTT

Stoichiometry N, 2:
B1
B3
B8
B12
B13
B14

Binding result, binds:
B2
B4
B5
B6
B7
B9
B10
B11

Target: the molecule itself
Assay: crystal structure; SeMet CC3 (901-1003); sitting drop, 0.1 M citric acid pH 3.5, 25% w/v PEG 3350, 16 °C; 3.1 Å

Binding result, binds:
B15

Target: the molecule itself
Assay: SEC-MALS; size-exclusion chromatography with static light scattering (miniDawn); MORC2FL at 70 μM; 50 mM Tris-HCl pH 8.0, 1000 mM NaCl, 1 mM EDTA, 1 mM DTT; no ATP; also run with 601 DNA

Stoichiometry N, 2:
B16
